Measured values published in paper PMC3970758, “A conserved MCM single-stranded DNA binding element is essential for replication initiation”.
One block for each molecule: values may come before it.

Key:
[1] = molecular target: Pyrococcus furiosus MCM N-terminal domain (PfMCM 1-256) (Pyrococcus furiosus) (UniProt Q8U3I4); experiment: crystal structure; PfMCMN without DNA; sitting drop, 18°C, 0.2 M sodium malonate pH 7.0, 20% PEG 3350; 2.65 Å; one hexamer in the asymmetric unit
[2] = molecular target: Pyrococcus furiosus MCM N-terminal domain (PfMCM 1-256) (Pyrococcus furiosus) (UniProt Q8U3I4); experiment: crystal structure; PfMCMN with 30-mer poly-dT ssDNA; hanging drop, 18°C, 50 mM MES pH 6.0, 10 mM Mg(OAc)2, 28.5% PEG 3350; 3.2 Å; two hexamers in the asymmetric unit
[3] = molecular target: T1, PfMCMN WT (Pyrococcus furiosus, UniProt Q8U3I4 1-256); experiment: EMSA; 5 mM Mg2+; EMSA: 20 mM HEPES pH 7.6, 200 mM NaCl, 5 mM MgCl2, 5 mM bME, 25 C, 30 min, 160 nM DNA; 4-20% TBE PAGE; conditions: protein: recombinant, tags: His6-SUMO removed by Ulp1, in-frame BamHI site may leave extra N-terminal residues
T1 sequence: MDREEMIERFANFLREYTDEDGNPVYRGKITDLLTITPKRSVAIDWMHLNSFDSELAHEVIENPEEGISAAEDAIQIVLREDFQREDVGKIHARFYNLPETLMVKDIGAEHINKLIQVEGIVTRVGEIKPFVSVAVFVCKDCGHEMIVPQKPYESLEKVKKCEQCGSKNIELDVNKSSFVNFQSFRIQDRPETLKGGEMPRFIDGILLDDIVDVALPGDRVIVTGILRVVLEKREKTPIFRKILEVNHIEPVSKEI

[4] = molecular target: T1, PfMCMN WT; experiment: crystal structure (3.2 A); 10 mM Mg(OAc)2 in well solution; Zn-binding subdomain; EMSA: 20 mM HEPES pH 7.6, 200 mM NaCl, 5 mM MgCl2, 5 mM bME, 25 C, 30 min, 160 nM DNA; 4-20% TBE PAGE; conditions: protein: recombinant; tags: His6-SUMO removed by Ulp1; in-frame BamHI site may leave extra N-terminal residues

stoichiometry N [1]: 6
stoichiometry N [2]: 6
Molecule: Pyrococcus furiosus MCM N-terminal domain (PfMCM 1-256) (from UniProt Q8U3I4 1-256) (domain or fragment)

Molecule: TTTTTTTTTTTTTTTTTTTTTTTTTTTTTTTTTTTTTTTT (ssDNA) [T40 ssDNA]
apparent K (half saturation) ([3]; label: 5'-fluorescein): 6.8 µM

Molecule: TTTTTTTTTTTTTTTTTTTTTTTTTTTTTT (ssDNA) [poly-dT 30-mer]
binding result [4]: binds

B1: 26-mer dsDNA (dsDNA)
DNA 1: ATGGCAGATCTCAATTGGATATCGGC
DNA 2: GCCGATATCCAATTGAGATCTGCCAT
apparent K (half saturation) ([3]; label: 5'-fluorescein on strand 1, blunt): 7 µM
